Experimental data taken from article PMC10287707.

What was measured:
TIA1 RRM2_3 = biological target: T1, TIA1 RRM2_3 (human, UniProt P31483-2 93-274); assay: EMSA; EMSA: 10 mM sodium phosphate pH 6.5, 50 mM NaCl, 1 mM DTT, 1 U/ul SUPERase-In, room temperature 20 min, native 1.2% agarose; RNA annealed in 10 mM Tris-HCl pH 7.5, 100 mM KCl; details: protein: recombinant, tags: His6-SUMO removed by SUMO protease, label: 5'-Cy3
T1 sequence: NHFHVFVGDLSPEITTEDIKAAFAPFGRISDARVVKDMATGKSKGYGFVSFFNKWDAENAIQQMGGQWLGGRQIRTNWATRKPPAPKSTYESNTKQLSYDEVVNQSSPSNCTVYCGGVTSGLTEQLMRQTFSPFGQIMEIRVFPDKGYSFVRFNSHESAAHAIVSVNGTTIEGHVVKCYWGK

TIA1 RRM1-3 = biological target: T2, TIA1 RRM1-3 (human, UniProt P31483-2 1-274); assay: as above; details: protein: recombinant; tags: His6-SUMO, removed (same protocol as RRM2_3); label: 5'-Cy3; single strand
T2 sequence: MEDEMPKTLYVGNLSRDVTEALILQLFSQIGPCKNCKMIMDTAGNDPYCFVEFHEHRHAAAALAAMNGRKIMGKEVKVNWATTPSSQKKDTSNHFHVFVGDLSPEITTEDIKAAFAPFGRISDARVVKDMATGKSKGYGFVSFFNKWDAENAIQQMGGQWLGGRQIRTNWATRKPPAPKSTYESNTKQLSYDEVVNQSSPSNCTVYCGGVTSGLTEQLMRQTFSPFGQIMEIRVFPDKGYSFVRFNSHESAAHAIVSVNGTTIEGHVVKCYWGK

## UUUGAUUUUAACGAACUUAAA (structured_RNA) [MERS SL3]
TIA1 RRM2_3
  Kd: 300 ± 20 nM

## UUUCGAUCUCUUGUAGAUCUGUUCUCUAAACGAACUUUAAAAUCU (structured_RNA) [SL2+SL3]
TIA1 RRM2_3; two hairpins
  Kd: 430 ± 50 nM

## UUUUUUUUUUU (ssRNA) [U11]
TIA1 RRM1-3
  binding result: binds
TIA1 RRM2_3; single strand
  binding result: binds

## UUUCGAUCUCUUGUAGAUC (structured_RNA) [SL2]
TIA1 RRM2_3; hairpin, 5-nt loop
  Kd: 2470 ± 370 nM

## UCACUCUUGAACGAACUUAAA (structured_RNA) [RousettusHKU9 SL3]
TIA1 RRM2_3
  Kd: 410 ± 20 nM

## UGUUCUCUAAACGAACUUUAA (structured_RNA) [SL3]
TIA1 RRM2_3
  Kd: 780 ± 90 nM
